According to publication PMC9475553, “SHF Acts as a Novel Tumor Suppressor in Glioblastoma Multiforme by Disrupting STAT3 Dimerization” (Advanced Science, 2022):

Key:
[1] = molecular target: immobilized STAT3 (Homo sapiens, UniProt P40763); assay: Static adsorption equilibrium assay, immobilized STAT3; type: binding
Text: Considering that the SH2 domain predominantly represents the inhibition of SHF on STAT3 dimerization and activity, we speculated that this domain may be an optional target for GBM suppression. To this end, we analyzed the mechanical interaction of SHF and STAT3. The structures of human SHF (aa265‐421) and STAT3 (aa130‐715). both of which spanned their respective SH2 domain. were simulated by Swiss‐Model server (https://swissmodel.expasy.org/). To simulate the interaction of SHF and STAT3, Discovery studio 2018 was employed to complete protein‐protein docking using ZDOCK as an initial stage. A rigid body molecular docking algorithm utilizing a fast Fourier transform (FFT) algorithm was used to further improve performance for searching in translational space. All the available structures from PDB were used to calculate the docking poses and the structures obtained were subjected to energy minimization filtration using the smart minimize algorithm (Max steps 200, RMS gradient 0.01). The highest resulting ZDock score was used as the appropriate conformational pose. […] Since these two spots are located closely to one another, the sequence spanning amino acids 388–421 was used as a peptide design master. To obtain a peptide with high internalization efficiency and a strong half‐life, we introduced a palmitic acid at the N‐terminus of the master sequence and amidated the C‐terminus. The designed peptide was named C16. A scrambled peptide containing a scrambled sequence targeting Spot1 was named SC and served as a negative control peptide. […] The static adsorption equilibrium experiment of immobilized STAT3 peptide was used to detect the binding rate of the synthesized peptide with STAT3 (Figure 7C). The concentration of immobilized STAT3 used was 85 nmol g^−1 wet gel. […] Thus, C16 acted as a powerful inhibitor of STAT3 dimerization and associated activity. Next, we determined the implication of C16 in tumor inhibition. […] A concentration of 25 uM was determined to be adequate for use in the subsequent experiments. […] Further, the impact of C16 on tumor propagation was examined in an intracranial xenograft model. U87 cells expressing luciferase were implanted into mouse brains. The mice were injected intraperitoneally (i.p.) with C16 or SC once every 2 days from the third day after cell transplantation. […] To investigate the effect of C16 on cell proliferation, EdU was injected 24 h prior to sacrifice.
Figure 7 Peptide derived from the STAT3‐binding sites of SHF is an effective GBM suppressive strategy. A) Binding model between SHF and STAT3 using ZDOCK server. […] B) IF staining determined the cell penetrability and nuclear‐localization of C16. U251 cells were incubated with C16 or SC for 2 h and performed IF staining using the indicated antibodies. Bars, 10 µm. C) The statical analysis of adsorption equilibrium assay detecting the binding of C16 and SC with recombinant STAT3. D) Pull‐down assay indicating C16 binds STAT3. GST‐STAT3 was incubated with C16 or SC for 2 h, and the pull‐down assay was performed using Anti‐His magnetic beads. E) IP assay showing the effect of C16 on STAT3 dimerization. 293T cells transfected with indicated vectors were incubated with C16 for 2 h. The relative quantification of STAT3 dimerization was listed. F) IP assay detecting the effect of C16 on the interaction of STAT3 and DNMT1. […] The relative quantification of STAT3/DNMT1 interaction was listed. […] The relative quantification of STAT3/DNMT1 interaction was listed. […]

[2] = system: intracranial U87 xenograft in nude mice; assay: Intracranial U87 xenograft tumor growth, bioluminescence; type: in vivo, mouse; details: female nude mice, 10 µg i.p. once every 2 days from third day after implantation; vs SC; n = 6, p < 0.01
Text: Considering that the SH2 domain predominantly represents the inhibition of SHF on STAT3 dimerization and activity, we speculated that this domain may be an optional target for GBM suppression. To this end, we analyzed the mechanical interaction of SHF and STAT3. The structures of human SHF (aa265‐421) and STAT3 (aa130‐715). both of which spanned their respective SH2 domain. were simulated by Swiss‐Model server (https://swissmodel.expasy.org/). To simulate the interaction of SHF and STAT3, Discovery studio 2018 was employed to complete protein‐protein docking using ZDOCK as an initial stage. A rigid body molecular docking algorithm utilizing a fast Fourier transform (FFT) algorithm was used to further improve performance for searching in translational space. […] Next, we determined the implication of C16 in tumor inhibition. […] A concentration of 25 uM was determined to be adequate for use in the subsequent experiments. […]
Figure 7 Peptide derived from the STAT3‐binding sites of SHF is an effective GBM suppressive strategy. […] B) IF staining determined the cell penetrability and nuclear‐localization of C16. […] The relative quantification of STAT3 dimerization was listed. […] The relative quantification of STAT3/DNMT1 interaction was listed. […] The relative quantification of STAT3/DNMT1 interaction was listed. […]

[3] = system: STAT3/DNMT1 interaction; assay: IP assay: ectopic STAT3/DNMT1 interaction in 293T cells; type: cell-based, human; details: 293T cells expressing ectopic STAT3 and DNMT1, C16 for 2 h
Procedure: Figure 7 Peptide derived from the STAT3‐binding sites of SHF is an effective GBM suppressive strategy. A) Binding model between SHF and STAT3 using ZDOCK server. […] B) IF staining determined the cell penetrability and nuclear‐localization of C16. U251 cells were incubated with C16 or SC for 2 h and performed IF staining using the indicated antibodies. Bars, 10 µm. C) The statical analysis of adsorption equilibrium assay detecting the binding of C16 and SC with recombinant STAT3. D) Pull‐down assay indicating C16 binds STAT3. GST‐STAT3 was incubated with C16 or SC for 2 h, and the pull‐down assay was performed using Anti‐His magnetic beads. E) IP assay showing the effect of C16 on STAT3 dimerization. 293T cells transfected with indicated vectors were incubated with C16 for 2 h. The relative quantification of STAT3 dimerization was listed. F) IP assay detecting the effect of C16 on the interaction of STAT3 and DNMT1. […] The relative quantification of STAT3/DNMT1 interaction was listed. […] The relative quantification of STAT3/DNMT1 interaction was listed. […] Positive cells were quantified 20 randomly selected fields per mouse (n = 6, Student's t‐test, **p < 0.01). […]
Immunoprecipitation (IP) experiments were performed to analyze the protein interactions. […] Precipitated products were analyzed by Western blot using the specified antibodies. […]

immobilized STAT3, sequence (P40763 whole entry, the tested form may be a part): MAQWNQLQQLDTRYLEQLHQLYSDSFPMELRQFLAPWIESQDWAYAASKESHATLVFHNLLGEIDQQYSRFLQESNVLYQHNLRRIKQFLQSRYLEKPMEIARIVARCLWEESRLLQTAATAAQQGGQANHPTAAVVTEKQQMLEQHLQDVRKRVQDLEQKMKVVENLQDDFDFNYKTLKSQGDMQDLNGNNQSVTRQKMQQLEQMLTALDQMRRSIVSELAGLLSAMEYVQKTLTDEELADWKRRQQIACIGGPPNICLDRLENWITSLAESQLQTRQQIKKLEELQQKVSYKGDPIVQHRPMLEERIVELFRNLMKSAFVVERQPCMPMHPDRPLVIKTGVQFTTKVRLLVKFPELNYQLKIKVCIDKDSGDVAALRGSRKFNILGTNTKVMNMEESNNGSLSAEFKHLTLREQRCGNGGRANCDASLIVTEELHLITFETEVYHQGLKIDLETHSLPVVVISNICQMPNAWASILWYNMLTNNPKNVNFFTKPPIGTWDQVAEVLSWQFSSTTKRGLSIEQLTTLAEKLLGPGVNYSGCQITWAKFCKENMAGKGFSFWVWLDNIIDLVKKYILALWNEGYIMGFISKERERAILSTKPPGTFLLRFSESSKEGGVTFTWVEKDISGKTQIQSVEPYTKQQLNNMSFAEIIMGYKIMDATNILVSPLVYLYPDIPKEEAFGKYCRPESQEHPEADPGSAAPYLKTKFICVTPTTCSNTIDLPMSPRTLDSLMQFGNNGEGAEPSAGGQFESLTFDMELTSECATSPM

maximum static adsorption (Qmax) ([1]; immobilized STAT3 85 nmol g^−1 wet gel, peptide 2-20 µM in PBS, stirred 12 h, free peptide by NanoDrop absorbance 240 nm, Langmuir isotherm, mean ± SD): 86.13 ± 0.18 nmol g^−1 wet gel
Kd ([1]; immobilized STAT3 85 nmol g^−1 wet gel, peptide 2-20 µM in PBS, stirred 12 h, free peptide by NanoDrop absorbance 240 nm, Langmuir isotherm, mean ± SD, read-out: equilibrium dissociation constant KD): 80 ± 20 nM
interaction model (stoichiometry) with STAT3 ([1]; maximum adsorption compared with actual amount of immobilized STAT3): 1:1 interaction model
Substance: C16: peptide spanning SHF amino acids 388–421, palmitic acid at the N-terminus, amidated C-terminus, 3× His tags added to the C-terminal (PFSSVPEIVHHYASRKLPIKGAEHMSLLYPVAIR; palmitic acid at the N-terminus; amidated C-terminus; left off: 3× His tags, C-terminal, kept)
KD of C16 compared with that of the SC peptide ([1]; static adsorption on immobilized STAT3, C16 vs SC): two orders of magnitude lower than that of the SC peptide
growth of intracranial tumors [2]: potently inhibited the growth of intracranial tumors
ectopic STAT3/DNMT1 interaction [3]: decrease
